According to publication PMC8887127:

Key:
[1] = molecular target: T1, GST-BEND3-BD4 (gel shift construct) (Homo sapiens, UniProt Q5T5X7 546-828); experiment: EMSA
T1 sequence: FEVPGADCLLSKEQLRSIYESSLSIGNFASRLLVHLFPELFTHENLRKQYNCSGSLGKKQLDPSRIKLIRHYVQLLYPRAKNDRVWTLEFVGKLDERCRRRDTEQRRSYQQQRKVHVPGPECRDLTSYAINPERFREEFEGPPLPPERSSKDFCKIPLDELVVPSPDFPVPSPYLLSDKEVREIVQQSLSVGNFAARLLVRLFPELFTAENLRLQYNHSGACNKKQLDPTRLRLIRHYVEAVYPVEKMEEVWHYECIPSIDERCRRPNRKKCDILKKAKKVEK

[2] = molecular target: T2, BEND3-BD4 (crystal construct) (Homo sapiens, UniProt Q5T5X7 715-828); experiment: X-ray crystallography
T2 sequence: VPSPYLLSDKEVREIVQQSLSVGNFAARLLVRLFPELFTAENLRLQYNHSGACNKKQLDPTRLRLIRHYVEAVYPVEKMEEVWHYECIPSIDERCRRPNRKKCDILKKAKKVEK

B1: mutant BD4 probe (dsDNA)
DNA 1: CTAAACCTTTCTACGCTAAAACCTGTCTT
DNA 2: AAGACAGGTTTTAGCGTAGAAAGGTTTAG
B1: no binding [1].

B2: wild-type BD4 probe (dsDNA)
DNA 1: CTAAACACCCACGCGCCGTGGGTTGTCTT
DNA 2: AAGACAACCCACGGCGCGTGGGTGTTTAG
B2: binds [1].

B3: 13-mer BD4 target duplex (dsDNA)
DNA 1: GGACCCACGCAGC
DNA 2: GGCTGCGTGGGTC
B3: binds [2].
